Measured values as given in publication PMC11933327, “Asymmetric activation of dimeric ATM/Tel1 kinase” (Cell Discovery, 2025).
Values belong to the molecule of their own block, whether it stands above or below them.

What was measured:
[1] = target: ATM/Tel1, active state (endogenously activated by DNA damage) (Schizosaccharomyces pombe) (UniProt O74630); experiment: cryo-EM structure; active wild-type ATM/Tel1 incubated with the CHK2 63-74 peptide and AMP-PNP in vitro; Structure 2, 3.6 Å
[2] = target: ATM/Tel1, active state (endogenously activated by DNA damage) (Schizosaccharomyces pombe) (UniProt O74630); experiment: mass photometry; active ATM/Tel1 incubated with over-saturated full-length CHK2, complex fractionated by GraFix
[3] = target: ATM/Tel1, basal state (Schizosaccharomyces pombe) (UniProt O74630); experiment: cryo-EM structure; basal state; resolution improved from 7.8 Å to 4.3 Å with a new algorithm
active ATM/Tel1 dimer = experiment: Mass photometry of GraFix-assembled ATM/Tel1-CHK2 complex; assay type: binding, Schizosaccharomyces pombe; conditions: over-saturated full-length CHK2, AMP-PNP, mass photometry 25 °C, 20 nM final protein
Procedure: to SDS- PAGE and analyzed by Western blot (WB) using pan- acetylated -Lysine (Rabbit monoclonal, Cat# 9441S, Cell Signaling Technology). and phospho-ATM/ATR substrate (pSQ/pTQ motif, Rabbit monoclonal, Cat# 6966, Cell Signaling Technology) antibodies.
Surface plasmon resonance
Interaction analysis between ATM/Tel1 in different states and CHK2 was performed at 20 °C using a Biacore 8K (GE Healthcare) by immobilizing CHK2 onto a CM5 sensor chip. A twofold dilution series of […] was injected at a flow rate of 30 µl min –1 in PBS running buffer. All conditions were tested for at least five different antibody concentrations, and the blank channel of the chip served as the negative control. After each cycle, the sensor was regenerated with 10 mM NaOH.
Data processing and kinetic analyses were performed using Biacore 8K Evaluation Software […]
To determine the stoichiometry and mass distribution between active ATM/Tel1 and its substrate CHK2, standard mass photometry landing assays were performed at 25 °C using a TwoMP instrument (Refeyn) mounted on an active anti-vibration platform. […] Bovine serum albumin standards (Beyotime) were measured on the same day to calibrate extracted particle contrast relative to mass. […]

ATM/Tel1, basal state [4] = target: T1, ATM/Tel1, basal state (Schizosaccharomyces pombe, UniProt O74630 1-2812); experiment: SPR; CHK2 (full length or peptide) at varied concentrations on basal or active ATM/Tel1; conditions: both partners purified
T1 construct: ATM/Tel1 kinase of Schizosaccharomyces pombe, basal state, symmetric homodimer; also called basal ATM/Tel1; basal-state ATM/Tel1; source: purified

[5] = target: ATM/Tel1, active state (endogenously activated by DNA damage) (Schizosaccharomyces pombe, UniProt O74630 1-2812, autophosphorylation and acetylation (sites not given)); experiment: SPR
ATM/Tel1, active state (endogenously activated by DNA damage), sequence (O74630 whole entry): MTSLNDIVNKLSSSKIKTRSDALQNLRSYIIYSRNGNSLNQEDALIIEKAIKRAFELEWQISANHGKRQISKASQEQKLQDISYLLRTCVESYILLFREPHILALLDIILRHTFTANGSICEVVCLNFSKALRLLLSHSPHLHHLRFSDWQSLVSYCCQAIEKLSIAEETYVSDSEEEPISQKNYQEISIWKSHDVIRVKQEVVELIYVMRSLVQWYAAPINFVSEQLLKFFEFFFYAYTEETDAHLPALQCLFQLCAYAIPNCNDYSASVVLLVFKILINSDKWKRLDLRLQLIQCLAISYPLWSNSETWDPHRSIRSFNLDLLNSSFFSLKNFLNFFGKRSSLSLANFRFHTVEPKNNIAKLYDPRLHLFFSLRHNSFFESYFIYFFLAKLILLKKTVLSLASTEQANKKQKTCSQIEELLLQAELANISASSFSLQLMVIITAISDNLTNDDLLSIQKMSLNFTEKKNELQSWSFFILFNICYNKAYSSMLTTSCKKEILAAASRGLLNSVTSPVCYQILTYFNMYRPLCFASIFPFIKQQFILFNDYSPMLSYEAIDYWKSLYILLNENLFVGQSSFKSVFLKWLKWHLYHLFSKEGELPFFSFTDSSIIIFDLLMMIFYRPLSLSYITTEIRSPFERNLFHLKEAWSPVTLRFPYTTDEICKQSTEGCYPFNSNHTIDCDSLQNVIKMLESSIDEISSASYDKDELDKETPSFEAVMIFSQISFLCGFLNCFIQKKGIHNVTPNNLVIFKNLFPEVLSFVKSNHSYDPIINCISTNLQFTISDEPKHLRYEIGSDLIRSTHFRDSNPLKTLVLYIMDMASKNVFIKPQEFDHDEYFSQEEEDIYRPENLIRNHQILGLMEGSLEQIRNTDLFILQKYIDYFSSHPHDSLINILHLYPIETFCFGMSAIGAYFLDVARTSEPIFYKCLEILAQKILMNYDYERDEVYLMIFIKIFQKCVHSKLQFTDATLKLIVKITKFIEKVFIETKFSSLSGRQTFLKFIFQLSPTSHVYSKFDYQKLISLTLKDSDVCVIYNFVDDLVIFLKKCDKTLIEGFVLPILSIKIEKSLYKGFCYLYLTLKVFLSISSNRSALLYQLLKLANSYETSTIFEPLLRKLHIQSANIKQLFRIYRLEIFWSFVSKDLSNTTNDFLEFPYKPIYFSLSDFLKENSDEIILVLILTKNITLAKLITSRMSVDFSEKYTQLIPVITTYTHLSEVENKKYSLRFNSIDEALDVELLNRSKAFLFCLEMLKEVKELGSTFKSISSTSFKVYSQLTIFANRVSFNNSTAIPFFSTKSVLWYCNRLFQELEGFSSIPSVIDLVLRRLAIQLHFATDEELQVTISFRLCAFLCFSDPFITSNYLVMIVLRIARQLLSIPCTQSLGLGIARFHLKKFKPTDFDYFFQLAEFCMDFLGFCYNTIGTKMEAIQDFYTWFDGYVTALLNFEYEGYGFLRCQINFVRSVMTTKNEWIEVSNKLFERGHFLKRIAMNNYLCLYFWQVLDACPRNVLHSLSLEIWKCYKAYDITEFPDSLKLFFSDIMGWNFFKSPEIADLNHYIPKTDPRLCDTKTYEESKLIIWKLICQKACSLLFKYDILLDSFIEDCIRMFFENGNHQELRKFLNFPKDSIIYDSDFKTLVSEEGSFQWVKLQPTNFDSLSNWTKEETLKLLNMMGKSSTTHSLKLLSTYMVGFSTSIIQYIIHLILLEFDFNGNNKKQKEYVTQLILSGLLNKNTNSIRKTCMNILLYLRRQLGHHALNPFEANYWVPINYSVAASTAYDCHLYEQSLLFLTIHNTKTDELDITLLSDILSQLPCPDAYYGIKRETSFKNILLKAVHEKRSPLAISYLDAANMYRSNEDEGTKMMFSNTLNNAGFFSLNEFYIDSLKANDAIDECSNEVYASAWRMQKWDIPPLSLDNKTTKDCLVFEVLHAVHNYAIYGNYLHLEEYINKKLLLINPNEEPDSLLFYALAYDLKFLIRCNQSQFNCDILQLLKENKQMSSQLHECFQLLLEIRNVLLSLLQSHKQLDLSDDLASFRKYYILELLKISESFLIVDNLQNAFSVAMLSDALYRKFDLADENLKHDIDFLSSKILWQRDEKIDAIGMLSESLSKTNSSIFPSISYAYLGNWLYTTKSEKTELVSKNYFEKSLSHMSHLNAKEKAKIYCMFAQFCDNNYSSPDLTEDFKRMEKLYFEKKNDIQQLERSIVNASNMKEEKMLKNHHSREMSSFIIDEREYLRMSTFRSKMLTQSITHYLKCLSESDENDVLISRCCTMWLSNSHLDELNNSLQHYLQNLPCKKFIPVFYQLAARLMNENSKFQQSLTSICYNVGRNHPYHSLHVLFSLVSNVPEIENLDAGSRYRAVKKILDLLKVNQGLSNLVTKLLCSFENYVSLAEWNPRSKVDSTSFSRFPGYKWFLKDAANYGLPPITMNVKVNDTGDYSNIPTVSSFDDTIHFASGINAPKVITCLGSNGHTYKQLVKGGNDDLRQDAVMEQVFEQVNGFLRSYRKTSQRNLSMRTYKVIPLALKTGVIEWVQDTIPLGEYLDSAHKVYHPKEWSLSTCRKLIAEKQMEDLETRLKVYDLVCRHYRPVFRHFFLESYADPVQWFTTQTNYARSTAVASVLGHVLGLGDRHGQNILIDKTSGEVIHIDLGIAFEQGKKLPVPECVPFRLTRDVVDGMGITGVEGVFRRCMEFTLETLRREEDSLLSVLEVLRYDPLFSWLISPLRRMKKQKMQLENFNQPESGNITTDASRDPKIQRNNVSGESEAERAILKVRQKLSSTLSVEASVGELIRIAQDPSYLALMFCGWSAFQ

ATM/Tel1, basal state [6] = target: ATM/Tel1, basal state (Schizosaccharomyces pombe, UniProt O74630 1-2812); experiment: SPR

Molecule: ATM/Tel1, active state (endogenously activated by DNA damage), O74630 1-2812
stoichiometry N [1]: 2
stoichiometry N [2]: 2

Molecule: full-length CHK2: human full-length CHK2, C-terminal 6× His tag, expressed in E. coli BL21(DE3)
CHK2 molecules bound per ATM/Tel1 dimer (active ATM/Tel1 dimer): only one CHK2 molecule is bound to an ATM/Tel1 dimer

Further lines, with some results ahead:

stoichiometry N [3]: 2
Molecule: ATM/Tel1, basal state, O74630 1-2812

fold reduction of affinity against active ATM/Tel1 (ATM/Tel1, basal state [4]): > 120 fold
Kd (ATM/Tel1, basal state [6]): 296 µM
B1: CHK2 substrate peptide (CHK2 63-74) (peptide, UniProt O96017 63-74, looked up)
peptide: LETVSTQELYSI
notes: CHK2 residues 63-74; also called CHK2 peptide
Kd [5]: 2.37 µM
